One data set concerns the target T1, AkPT1 (Angelica keiskei, UniProt A0A810JZD5).
T1 sequence (A0A810JZD5 1-398): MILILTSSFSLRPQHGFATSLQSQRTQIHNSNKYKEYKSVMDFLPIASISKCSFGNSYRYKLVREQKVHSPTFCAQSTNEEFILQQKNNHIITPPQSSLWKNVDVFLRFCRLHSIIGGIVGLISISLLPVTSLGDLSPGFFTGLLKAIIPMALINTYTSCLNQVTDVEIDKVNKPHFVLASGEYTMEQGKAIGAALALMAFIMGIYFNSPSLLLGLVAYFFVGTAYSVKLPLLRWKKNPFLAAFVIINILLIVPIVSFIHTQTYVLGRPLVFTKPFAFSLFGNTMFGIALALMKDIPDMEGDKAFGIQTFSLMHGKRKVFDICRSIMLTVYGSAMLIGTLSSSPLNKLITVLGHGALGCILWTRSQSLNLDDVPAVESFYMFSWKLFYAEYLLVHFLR
As to the kind of experiment: dimethylallyltransferase assay, HPLC, recombinant microsomes. The settings on record: read-out: Apparent Km; co-substrate DMAPP; 10 mM MgCl2, pH 8.0, 30 °C. It is filed as cell-based.

Another data set addresses T2, CpPT1 (Citrus x paradisi, UniProt A0A810JZE7).
T2 sequence (A0A810JZE7 1-408 limits assumed): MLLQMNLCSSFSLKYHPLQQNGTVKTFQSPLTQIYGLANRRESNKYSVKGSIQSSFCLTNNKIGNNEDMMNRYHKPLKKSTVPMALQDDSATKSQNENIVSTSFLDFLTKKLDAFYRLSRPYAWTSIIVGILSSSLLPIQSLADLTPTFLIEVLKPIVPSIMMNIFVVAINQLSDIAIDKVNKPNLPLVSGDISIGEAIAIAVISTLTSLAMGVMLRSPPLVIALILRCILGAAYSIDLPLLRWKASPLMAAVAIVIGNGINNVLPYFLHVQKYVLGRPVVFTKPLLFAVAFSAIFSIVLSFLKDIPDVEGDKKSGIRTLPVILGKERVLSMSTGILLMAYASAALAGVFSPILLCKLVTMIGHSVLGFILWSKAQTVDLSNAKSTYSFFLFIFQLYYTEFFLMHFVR
As to the kind of experiment: geranyltransferase assay, LC product quantification, recombinant microsomes. The settings on record: read-out: Apparent Km; co-substrate GPP; 10 mM MgCl2, pH 7.6, 28 °C.

Substrate in data set [1]: O=c1ccc2c(O)cc(O)cc2o1
Put plainly: cells, lysate or membranes. The settings on record: co-substrate GPP, 10 mM MgCl2, pH 7.6, 28 °C.

Substrate in data set [2]: O=c1ccc2cc3ccoc3c(O)c2o1
Put plainly: cells, lysate or membranes. The conditions noted are these: co-substrate GPP, 10 mM MgCl2, pH 7.6, 28 °C.

Substrate in data set [3]: COc1c2ccoc2c(O)c2oc(=O)ccc12
Put plainly: cells, lysate or membranes. The settings on record: co-substrate GPP, 10 mM MgCl2, pH 7.6, 28 °C.

Substrate in data set [4]: COc1cc(O)c2ccc(=O)oc2c1
As to the kind of experiment: cells, lysate or membranes. The conditions noted are these: co-substrate GPP, 10 mM MgCl2, pH 7.6, 28 °C.

Substrate in data set [5]: CC(C)=CCC/C(C)=C/COP(=O)(O)OP(=O)(O)O
As to the kind of experiment: cells, lysate or membranes. The conditions noted are these: co-substrate bergaptol, 10 mM MgCl2, pH 7.6, 28 °C.

Substrate in data set [6]: CC(C)=CCOP(=O)(O)OP(=O)(O)O
As to the kind of experiment: dimethylallyltransferase assay, HPLC, recombinant microsomes. It is filed as cell-based, Angelica keiskei. The conditions noted are these: co-substrate bergaptol, 10 mM MgCl2, pH 8.0, 30 °C.

Consider `O=c1ccc2c(O)c3ccoc3cc2o1` [compound 12, Bergaptol], for which the Km on AkPT1 amounted to 3.1 ± 0.3 µM; at CpPT1, 52 ± 4 µM.

B1: CpPT1 (Citrus x paradisi) (protein)
chain: T2 sequence (A0A810JZE7 1-408 limits assumed)
With B1, the Km in data set [1] was 280 ± 30 µM; in data set [2], 280 ± 20 µM; in data set [3], 700 ± 100 µM; in data set [4], 250 ± 30 µM; in data set [5], 10 ± 1 µM.

B2: AkPT1 (Angelica keiskei) (protein)
chain: T1 sequence (A0A810JZD5 1-398)
As to B2, the Km in data set [6] was found to be 1.8 ± 0.1 µM.

By Km is commonly meant the substrate concentration at which the rate is half of its maximum.

These data come from publication doi:10.1101/2020.07.07.192757v1 (biorxiv, 2020).
